The text below walks through data of patent US20240309087A1 (SHANGHAI JUNSHI BIOSCIENCES, published 2024).

Test [1] addresses T1, human CD112R on Jurkat CD112R effector cells (human, UniProt Q6DKI7 1-326).
T1 sequence (looked up): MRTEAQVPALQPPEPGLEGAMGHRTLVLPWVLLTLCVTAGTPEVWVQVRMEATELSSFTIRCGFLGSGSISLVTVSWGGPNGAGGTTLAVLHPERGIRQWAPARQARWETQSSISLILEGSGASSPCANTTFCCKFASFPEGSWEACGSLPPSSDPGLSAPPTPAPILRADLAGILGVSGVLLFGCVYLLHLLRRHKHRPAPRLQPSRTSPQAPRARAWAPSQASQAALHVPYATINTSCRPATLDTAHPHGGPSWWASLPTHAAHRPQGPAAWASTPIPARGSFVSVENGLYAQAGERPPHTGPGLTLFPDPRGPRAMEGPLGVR
As to the kind of experiment: cell-based or functional assay.

For test [2], the target named is T2, hCD112R mFC recombinant protein (human; murine, UniProt Q6DKI7 41-160).
T2 construct: range 41-160; expressed in 293E cells; also called hCD112R ECD mFC; hCD112R-ECD-mFC; not shown: murine IgG2a Fc domain (MX2-mFc vector)
T2 sequence (looked up): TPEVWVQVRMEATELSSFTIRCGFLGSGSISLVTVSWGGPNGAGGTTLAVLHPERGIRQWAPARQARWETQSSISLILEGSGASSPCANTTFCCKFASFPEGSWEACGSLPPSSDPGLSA
As to the kind of experiment: FACS competition, hCD112R mFc on CHO CD112 cells. On the procedure:
Cells CHO CD112 overexpressing human CD112 were co-incubated with a hCD112R mFc protein solution (5 μg/mL) prepared in a staining buffer (PBS+1% FBS), and the humanized anti-CD112R antibodies or the control antibodies at different concentrations (initial concentration: 100 μg/mL, 3-fold dilution, 10 concentration gradients) at 4° C. for 30 min. Unbound antibodies were then washed with a staining buffer and the cells were incubated with 1% (v/v) goat anti-mouse IgG Fc fluorescent secondary antibodies (Jackson ImmunoResearch) prepared in a staining buffer at 4° C. for 30 min in the dark. Finally, the cells were collected by using a flow cytometer (BD Canto II), and the fluorescent antibodies bound to the cell surface were detected. Raw data were analyzed by using FlowJo to obtain MFI values, and a four-parameter curve fitting was performed by using GraphPad Prism software to obtain IC₅₀ values. The positive control and the negative control were COM701 (anti-CD112R antibody, Compugen, obtained by expression and purification according to the sequences in US20180280506A1) and the anti-KLH hu-IgG4 antibody, respectively.

For test [3], the target named is T2, hCD112R mFC recombinant protein. In words: ELISA, coated hCD112R-ECD-mFC; EC50 COM701/EC50 antibody. Here is the method: (§1) A plate was coated with a hCD112R-ECD-mFC protein (1.5 μg/mL) at a fixed concentration, and the humanized anti-CD112R antibodies diluted in a gradient (initial concentration: 1 μg/mL, 2.5-fold gradient dilution, 12 concentration gradients in total) were added to bind to the antigen. HRP-conjugated goat anti-human antibody IgG (Fc specific) (Sigma, A0170) was subjected to a 5000-fold dilution and used as a detection antibody for detection. The color development was performed with 0.1 mg/mL TMB, and finally stopped with 2 M hydrochloric acid. The plate was read at 420 nm/620 nm. EC₅₀ was obtained by fitting with a four-parameter logistic regression (4PL) model. The […] were COM701 (anti-CD112R antibody, Compugen, obtained by expression and purification according to the sequences in US20180280506A1) and the anti-KLH hu-IgG4 antibody.
For orientation: ELISA stands for enzyme-linked immunosorbent assay.

The target is the same in test [4]. As to the kind of experiment: ELISA, coated hCD112R-ECD-mFC. On the procedure: as §1

Several values for one entry are separate records, joined by “and”; a condition that tells them apart may be missing. Identical values can stand only once.

B1: Hu37 (antibody, IgG4, V domains shown)
VH: EVQLVESGGGLVQPGGSLRLSCAASGFTFSSYHMSWVRQAPGKGLELVSAINSNVISTYYLDTVKGRFTISRDNAKNSLYLQMNSLRAEDTAVYYCARHEDYYGFAMDYWGQGTLVTVSS
VL: DIVMTQSPDSLAVSLGERATINCKASQSVTNDVAWYQQKPGQPPKLLIYYVSNHYTGVPDRFSGSGSGTDFTLTISSLQAEDVAVYFCQQAYRSPWTFGQGTKLEIK
With B1, in test [1], the “EC50, CD112R/CD112 reporter” value amounted to 0.0355 µg/mL and the “Relative activity (%), EC50 COM701/EC50 antibody” value was determined as 182%.

B2: Hu18 (antibody, IgG4, V domains shown)
VH: EVQLVESGGGLVKPGGSLRLSCAASGFTFSSYHMSWVRQAPGKGLELVSAISRDGDSTYYPDTVKGRFTISRDNAKNSLYLQMNSLRAEDTAVYYCSRHEDYFGFAMDSWGQGTLVTVSS
VL: EIVMTQSPPTLSLSPGERVTLSCKASQSVSNDVAWYQQKPGQAPRLLIYYVSNRFTGIPARFSGSGSGTDFTLTISSLQPEDFAVYFCQQAYRSPWTFGQGTKLEIK
notes: humanized IgG4
By IC50 is commonly meant the concentration that inhibits the measured activity by half. The term EC50 denotes the midpoint of the concentration-response curve. Regarding B2, in test [2], the IC50 was 3.39 µg/mL and 2.51 µg/mL. The “Relative activity (%)” value in test [3] was determined as 122%. Besides, in test [1], the “EC50, CD112R/CD112 reporter” value came out at 0.0263 µg/mL and the “Relative activity (%), EC50 COM701/EC50 antibody” value was 209%. Also, in test [4], the EC50 amounted to 0.00466 µg/mL.

B3: Hu38 (antibody, IgG4, V domains shown)
VH: EVQLVESGGGLVQPGGSLRLSCAASGFTFSSYHMSWVRQAPGKGLELVSAINSNVISTYYLDTVKGRFTISRDNAKNSLYLQMNSLRAEDTAVYYCARHEDYYGFAMDYWGQGTLVTVSS
VL: AIQMTQSPSSLSASVGDRVTITCKASQSVTNDVAWYQQKPGKAPKLLIYYVSNHYTGVPSRFSGSGSGTDFTLTISSLQPEDFATYFCQQAYRSPWTFGQGTKLEIK
Take B3: in test [1], the “EC50, CD112R/CD112 reporter” value was determined as 0.0337 µg/mL and the “Relative activity (%), EC50 COM701/EC50 antibody” value was determined as 192%.

B4: Hu39 (antibody, IgG4, V domains shown)
VH: EVQLVESGGGLVQPGGSLRLSCAASGFTFSSYHMSWVRQAPGKGLELVSAINSNVISTYYLDTVKGRFTISRDNAKNSLYLQMNSLRAEDTAVYYCARHEDYYGFAMDYWGQGTLVTVSS
VL: EIVMTQSPPTLSLSPGERVTLSCKASQSVSNDVAWYQEKPGQAPRLLIYYVSHRFTGIPARFSGSGSGTDFTLTISSLQPEDFAVYYCHQAYRSPWTFGQGTKLEIK
In the case of B4, in test [1], the “EC50, CD112R/CD112 reporter” value was 0.0217 µg/mL and the “Relative activity (%), EC50 COM701/EC50 antibody” value was 254%.

B5: Hu45 (antibody, IgG4, V domains shown)
VH: EVQLVESGGGLVKPGGSLRLSCAASGFTFSSYHMSWVRQAPGKGLELVSAINSNVISTYYLDTVKGRFTISRDNAKNSLYLQMNSLRAEDTAVYYCARHEDYYGFAMDYWGQGTLVTVSS
VL: EIVMTQSPPTLSLSPGERVTLSCKASQSVSNDVAWYQEKPGQAPRLLIYYVSHRFTGIPARFSGSGSGTDFTLTISSLQPEDFAVYYCHQAYRSPWTFGQGTKLEIK
Consider B5, for which, in test [1], the “EC50, CD112R/CD112 reporter” value was found to be 0.0256 µg/mL and the “Relative activity (%), EC50 COM701/EC50 antibody” value amounted to 261%.

B6: Hu41 (antibody, IgG4, V domains shown)
VH: EVQLVESGGGLVQPGGSLRLSCAASGFTFSSYHMSWVRQAPGKGLELVSAINSNVISTYYLDTVKGRFTISRDNAKNSLYLQMNSLRAEDTAVYYCARHEDYYGFAMDYWGQGTLVTVSS
VL: DIQMTQSPSSLSASVGDRVTITCKASQSVSNDVAWYQQKPGKAPKLLIYYVSNRFTGVPSRFSGSGSGTDFTLTISSLQPEDFATYFCQQAYRSPWTFGQGTKLEIK
Consider B6, for which, in test [1], the “EC50, CD112R/CD112 reporter” value was 0.0267 µg/mL and the “Relative activity (%), EC50 COM701/EC50 antibody” value stood at 243%.

B7: Hu40 (antibody, IgG4, V domains shown)
VH: EVQLVESGGGLVQPGGSLRLSCAASGFTFSSYHMSWVRQAPGKGLELVSAINSNVISTYYLDTVKGRFTISRDNAKNSLYLQMNSLRAEDTAVYYCARHEDYYGFAMDYWGQGTLVTVSS
VL: DIVMTQSPDSLAVSLGERATINCKASQSVSNDVAWYQQKPGQPPKLLIYYVSHRFTGVPDRFSGSGSGTDFTLTISSLQAEDVAVYFCHQAYRSPWTFGQGTKLEIK
As for B7, in test [1], the “EC50, CD112R/CD112 reporter” value is 0.0242 µg/mL and the “Relative activity (%), EC50 COM701/EC50 antibody” value was found to be 227%.

B8: Hu42 (antibody, IgG4, V domains shown)
VH: EVQLVESGGGLVQPGGSLRLSCAASGFTFSSYHMSWVRQAPGKGLELVSAINSNVISTYYLDTVKGRFTISRDNAKNSLYLQMNSLRAEDTAVYYCARHEDYYGFAMDYWGQGTLVTVSS
VL: EIVMTQSPPTLSLSPGERVTLSCKASQSVSNDVAWYQQKPGQAPRLLIYYVSNRFTGIPARFSGSGSGTDFTLTISSLQPEDFAVYFCQQAYRSPWTFGQGTKLEIK
On to B8, for which, in test [1], the “EC50, CD112R/CD112 reporter” value was found to be 0.0355 µg/mL and the “Relative activity (%), EC50 COM701/EC50 antibody” value is 183%.

B9: Hu44 (antibody, IgG4, V domains shown)
VH: EVQLVESGGGLVKPGGSLRLSCAASGFTFSSYHMSWVRQAPGKGLELVSAINSNVISTYYLDTVKGRFTISRDNAKNSLYLQMNSLRAEDTAVYYCARHEDYYGFAMDYWGQGTLVTVSS
VL: AIQMTQSPSSLSASVGDRVTITCKASQSVTNDVAWYQQKPGKAPKLLIYYVSNHYTGVPSRFSGSGSGTDFTLTISSLQPEDFATYFCQQAYRSPWTFGQGTKLEIK
On to B9, for which, in test [1], the “EC50, CD112R/CD112 reporter” value came out at 0.0387 µg/mL and the “Relative activity (%), EC50 COM701/EC50 antibody” value was 174%.

B10: Hu43 (antibody, IgG4, V domains shown)
VH: EVQLVESGGGLVKPGGSLRLSCAASGFTFSSYHMSWVRQAPGKGLELVSAINSNVISTYYLDTVKGRFTISRDNAKNSLYLQMNSLRAEDTAVYYCARHEDYYGFAMDYWGQGTLVTVSS
VL: DIVMTQSPDSLAVSLGERATINCKASQSVTNDVAWYQQKPGQPPKLLIYYVSNHYTGVPDRFSGSGSGTDFTLTISSLQAEDVAVYFCQQAYRSPWTFGQGTKLEIK
B10: in test [1], the “EC50, CD112R/CD112 reporter” value was found to be 0.0426 µg/mL and the “Relative activity (%), EC50 COM701/EC50 antibody” value came out at 158%.

B11: Hu48 (antibody, IgG4, V domains shown)
VH: EVQLVESGGGLVKPGGSLRLSCAASGFTFSSYHMSWVRQAPGKGLELVSAINSNVISTYYLDTVKGRFTISRDNAKNSLYLQMNSLRAEDTAVYYCARHEDYYGFAMDYWGQGTLVTVSS
VL: EIVMTQSPPTLSLSPGERVTLSCKASQSVSNDVAWYQQKPGQAPRLLIYYVSNRFTGIPARFSGSGSGTDFTLTISSLQPEDFAVYFCQQAYRSPWTFGQGTKLEIK
On to B11, for which, in test [1], the “EC50, CD112R/CD112 reporter” value came out at 0.0421 µg/mL and the “Relative activity (%), EC50 COM701/EC50 antibody” value is 176%.

B12: Hu46 (antibody, IgG4, V domains shown)
VH: EVQLVESGGGLVKPGGSLRLSCAASGFTFSSYHMSWVRQAPGKGLELVSAINSNVISTYYLDTVKGRFTISRDNAKNSLYLQMNSLRAEDTAVYYCARHEDYYGFAMDYWGQGTLVTVSS
VL: DIVMTQSPDSLAVSLGERATINCKASQSVSNDVAWYQQKPGQPPKLLIYYVSHRFTGVPDRFSGSGSGTDFTLTISSLQAEDVAVYFCHQAYRSPWTFGQGTKLEIK
Regarding B12, in test [1], the “EC50, CD112R/CD112 reporter” value stood at 0.0269 µg/mL and the “Relative activity (%), EC50 COM701/EC50 antibody” value came out at 249%.

B13: Hu47 (antibody, IgG4, V domains shown)
VH: EVQLVESGGGLVKPGGSLRLSCAASGFTFSSYHMSWVRQAPGKGLELVSAINSNVISTYYLDTVKGRFTISRDNAKNSLYLQMNSLRAEDTAVYYCARHEDYYGFAMDYWGQGTLVTVSS
VL: DIQMTQSPSSLSASVGDRVTITCKASQSVSNDVAWYQQKPGKAPKLLIYYVSNRFTGVPSRFSGSGSGTDFTLTISSLQPEDFATYFCQQAYRSPWTFGQGTKLEIK
As to B13, in test [1], the “EC50, CD112R/CD112 reporter” value is 0.039 µg/mL and the “Relative activity (%), EC50 COM701/EC50 antibody” value came out at 190%.
